From paper PMC4964339 (Scientific Reports, 2016)

Target: T1, human claudin-4 (residues 1-183), tag-free (human, UniProt O14493 1-183)
T1 construct: also called tag-free claudin-4
T1 sequence (looked up): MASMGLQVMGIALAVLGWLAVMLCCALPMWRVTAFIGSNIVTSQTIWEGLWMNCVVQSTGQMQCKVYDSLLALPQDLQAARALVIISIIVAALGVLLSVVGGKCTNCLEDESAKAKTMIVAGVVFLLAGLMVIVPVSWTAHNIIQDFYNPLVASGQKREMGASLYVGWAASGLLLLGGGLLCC
Experiment: SPR
Conditions: both partners purified

B1: GST-tagged C-CPE (C-terminal fragment of Clostridium perfringens enterotoxin, residues 185-319) (domain or fragment)
chain: RCVLTVPSTDIEKEILDLAAATERLNLTDALNSNPAGNLYDWRSSNSYPWTQKLNLHLTITATGQKYRILASKIVDFNIYSNNFNNLVKLEQSLGDGVKDHYVDISLDAGQYVLVMKANSSYSGNYPYSILFQKF
Kd: 3.4 nM
